Measurements reported in the nanobody polyreactivity screen of Harvey et al. (2022).

Assay: yeast display, Sf9 membrane polyspecificity reagent, FACS + sequencing; frameworks hold sequencing errors
Procedure, shortened: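 Using colony PCR, genes from sorted yeast display clones were amplified, then sequenced on MiSeq at 2 × 250 and filtered by CDR length. The clones had been stained with 10% biotinylated, detergent-solubilized Sf9 membrane reagent for 1 hour at 4 °C and sorted by FACS into low and high (top ~1%) gates on anti-HA and streptavidin fluorescence. Polyreactivity labels come from the gate of origin.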

Row | Sequence | polyreactivity (PSR sort gate)
1 | QVQLLESGGGLVQAGGSLRLSCAASGSTFDRNTMGWYRQAPGTVRELVAAITWSSGSTYYADSVKGRFTISRDNAKNTVYLQMNSLKPEDTAVYYCAADRIRYRSRHKYGYWVQGTQVTVSS | low polyreactivity
2 | QVQLLESGGGLVQAGGSLRLSCAASGSTFDYKSMGWYRQAPGKERELVATINDSGGNTYYADSVKGRFTISRDNAKNTVYLQMNSLKPEDTAVYYCATVGYLYTPVVVTWWDWGDYWGQGTQVTVSS | low polyreactivity
3 | QVQLLESGGGLVQAGGSLRLSCAASGSTFRWYAMGWYRQAPGRERELVAAITWSGGRTYYADSVKGRFTISRDNAKNTVYLQMNSLKPEYTAVYYCNAVYYHVVDFDYWGQGTQVTVSS | high polyreactivity
4 | QVQLLESGGGLVQAGGSLRLSCAASGSTFTYNAMGWYRQAPGKERELVAAISSSGGSTYYADSVKGRFTISRDNAKNTVYLQMTSLNPEDTAVYYCAKRWLYTSAFRKMDYWGQGTQVTVSS | high polyreactivity
5 | QVQLLESGGGLVQAGGSLRLSCAASVFTFYGYAMGWYRQAPGKERELVAAISRRGGSTYYADSVKGRFTISRDNAKNTVYLQMNSLKPEDTAVYYCATDRAYYHSYGRFGYWGQGTQVTVSS | high polyreactivity
6 | QVQLLESGGGLVQAGGSLRLSCAPSGFTYRYNAMVWYRQAPGIERELVAAISSRGGSTYYADSVKGRFTISRDNAKNTVYFQMNSLKPEDTGVYYCARDDWVYTNVEMDYWGQGTQVTVSS | high polyreactivity
7 | QVQLLESGGGLVQAGGSLRLSCAPSGRTFARYDMAWYTQAPGKERELVAVISRTGSTYYADSVKGSFTISRDNEKITVYLLMNSLKPEDTAVYYCATVYVYWGQGTQVTVSS | high polyreactivity
8 | QVQLLESGGGLVQAGGSLRLSSAASGSILDHYAMGWYRQAPGNEREFVAAISIRGGSTYYADSVKGRFTISRDNAKNTVFLQMNSLKPEDNAVYYCAATAQYGRDSWSSYRMFPPYDYWGQGTEVTVSS | low polyreactivity
9 | QVQLLESGGGLVQAGGSLRLSSMASASILGDRMSWYRQAPGKEHELVATIYDGGISYYADSMKGRFTISRDNAKNTVYLQMNSLRPEDTAVFFCGASFEGYRFHVYCGQGTQVTVSS | low polyreactivity
10 | QVQLLESGGGLVQAGGSLRLTCGASGITFSVNTMGWYRQAPGKDRELVAAFTSAGGTYYADSVKGRFTISRDTAKNTVYFQMISQKPEDTAVYYCATPYDIQWASESHDYWGQGTQVTVSS | low polyreactivity
11 | QVQLLESGGGLVQAGRSLCLSCAASGSIIINAMGWYRQAPGKERELVATIRWRGGTTYYADSVKGRFTISRDNAKNTVYLQRNSLKPEDTAVYYCAADRSYYPDPRTTYGYNYWGQGTQVTVSS | low polyreactivity
12 | QVQLLESGGGLVQAGVSHRLSCASSGFIFTYYAMGWYRQAPGKESELVASISTYGGNTNYADSVKGRFTISRDNAKNTVYIQMNSLIPEDTAVYYCAARIGNQYHTGYPTAGRKYGYWGQGTQVSVSS | high polyreactivity
13 | QVQLLESGGGLVQARGSLRLSCAASGITFSRYAMGWYRQAPGKERELVAAITRRGGNTYYADSVKGSFTISRVYAKNTVYLQMNSLKPEDTAVYYCAAGYTYYRGDYWGQGTQVTVSS | high polyreactivity
14 | QVQLLESGGGLVQPGGSLRLSCAASGRIFRHSAMGWYRQAPGKERELVAAISGGGGRTYYADSVKGRFTISRDNAKLSVDLQMNSLKPEDTAVYYCAAYRSRHYYYWGHGTQVTVSS | high polyreactivity
15 | QVQLLESGGGLVQPGGSLRLSCAASGSIFGRNVMGWYRQAPGKERELVAAISSSGGRTYYADSVKGRFTISRDNAKNNVYLQMNCLKPEDTAVYYCADRYGIKYYYWGQGTQVTVSS | high polyreactivity
16 | QVQLLESGGVLVQAGGSLRLSCAASGFTFWYYAMGWYRQAPGKQRELVATITWNVGSTYYADSVKGRFTISRDNAKNTVYIQMNTLKPEDTAVYYCNKSYSRSSYWQYYYWGQGTQVTVSS | low polyreactivity
17 | QVQLLESGRGLVQAGGTLRLSCAPSGRTFSVNAMGWYRQAPGKERELVAAISWDGGSTYYADSVKVRFTISRDNAKNTVYLQMNSLKQEDTAVYYCNKDLYYAYDYWGQGTQVTVSS | low polyreactivity
18 | QVQLLESGVGKVQAGGRLRLSCAASGSIFLIYAMGWYRQAPGKESELVAAISSGGSKYYADSVNGRFTISRDNAKNTVYLQMNSVKPEDTAVYYCATYSTCVAYHLYYWGQGTQVSVSS | low polyreactivity
19 | QVQLLESWGGLVQAGGSLRLSCAASGRTSTRNAMGWYRQAPGNERELVAAISWSGGRTHYADSVKGRFTISRDNAKNTVYLQMNSLKPEDTAVYYCAAAYTGGQKYYSWGQGTEVTVSS | high polyreactivity
20 | QVQLLETGGGLVQAGGSLRLSCAASGITFKYYSMGWYRQAPGKERELFATITKRGGSTYYADSVKGRFTISRDNAKNTVYLQMNSLKPVDTAVYYCAAEILIRFWGVQWGGEYWGQGTQVTVSS | high polyreactivity
21 | QVQLLETGGVLVQAGGSLRLSCAASGFIFGINAMGWYRQAPGKERELVATITSGGGTNYADSVKGRFTISRDNAKINVYLQMNSLKPEDSAVYYCNAQIAWATYEGDYWGQGTQVTVSS | low polyreactivity
22 | QVQLPGSGGGLVQAGGSLRLSCAASGYIFQNVPMGWTRQAPGKERDLVAGIDNGTSTNYADSVNGRFTISRDNAKNTVYLQMNSLKPEDTAVYYCAAAGQADDTLGYWGQGTQVTVSS | low polyreactivity

Row | Sequence | polyreactivity (PSR sort gate)
23 | QVQLQDSGGGLVQAGGSLRLSCAASGSISIYGYMGWYRQAPGNERELVAAITAGGSTYYADSVKGRFTISRDNAKNTVYLLMKSLKPEDTAVYYCAPYEQRVYDLHYWGQGTQVTVSS | high polyreactivity
24 | QVQLQDSGGGLVQAGGSLRLSCAASGYIFGSGSMGWFRQAPGKERELVATINNGSSTYYADSVKGRFTISRDNAKNTVYLQMNSLKPEDTAVYYCGVFLYRLTFFYYWGQGNQVTVSS | high polyreactivity
25 | QVQLQDSGGGLVQAGGSLRLSCAASGYIFGSGSMGWFRQAPGKERELVATINNGSSTYYADSVKGRFTISRDNAKNTVYLQMNSLKPEDTAVYYCNRVGTYHSYDYWGQGTQVTVSS | high polyreactivity
26 | QVQLQDSGGGLVQARGSLRPSCAASGTISDGVPMGWYRQAPGEVRELVATTVLGATTNYADSVKGRFTISRGNAKNTVYLQMNSLKPEETAVYYCAAPLRYDKGFSYWGQGTQVTVSS | low polyreactivity
27 | QVQLQECGGGLEQAGGSLRLSCAASGTFSNSVKWLYCQARGKEREFVATIGVGGSTNYADSVKGRFTISRDNAKNTVYLQMNSLKPEDTAVYHCAAYGAASNFHYYRGQGTQVTVSS | low polyreactivity
28 | QVQLQECGGGLVQAGGSLRLSCAASGNIFDADIMGWYRQAPGKERELVASVSDGGSTNYADSVKGRFTISRDNAKNTVYLQMNSLKPEDTAVYYCAAIVYPDILTYFDYDYDYFYWGQGTQVTVGS | low polyreactivity
29 | QVQLQECGGGLVQAGGSLRLSCAASGNIFDADIMGWYSQAPGKERELVDSVTDGGSTNYADSVKGRFTISRDNAKNTVYLQMNSLKPEHTAVYYCAAIVYPDILTYFDYDYDYFYWGQGTQVTVGS | low polyreactivity
30 | QVQLQEGGGGLVQAGGSLRLSCAASGYISYGDVMGWYRQAPGEERELVASIGLDATTNYADSVKGRFTISRDNAKITVYVQMNSLKPEDTAVYYCAADVGSGVLCGYWGQGTQMTVSS | high polyreactivity
31 | QVQLQEIGGGLVQAGGSLRLSCAATGSIFVSVTMGWYRQAPGKERELVASIGRGSTTNHADSVKGRFTISRDNAKNIVYLLMNSLKPEDTAVYYCAALESYGKYHGYWGQGTQVTVSS | low polyreactivity
32 | QVQLQERAAWCRRAGSLLLSCAASGNISDYYFMGWYRQAPAKERELVAAIAPGSNTYYADSVQGRFTISRDNAKKTVYLQMNSLKPEDTAVCFCAANSTQYTWFDDWGQGTQVPVSS | low polyreactivity
33 | QVQLQERGGGLVQAGGSLRLSCAASGYISHADEKGWYRQAPGKEHELVASISNGGCTNYADSEKGRFTISRDNAKNTLYLQMNSLKSEDTAVYYCAAWTGQVDIHYYWGQGTQVTVSS | low polyreactivity
34 | QVQLQERGGGLVQAGGSLRLSCAASRIIYADGFMGLYRQAPGKEREFVATITGGGTSNYADSVKGLFTISRDNAKNTVYLQMNSQKPEDTAVYYCAVYFAWTIGFTYWGQGTQVTVSS | high polyreactivity
35 | QVQLQERGGGLVQTGGSLSLSCEASGTISYSDSMCWYRQAPRKERELVAAIARGGITNYAYSVKGRFTISRDNAKNTVYLQMNSLKPEDTAVYYCADLSSRYAQFDYWGQGTQVTVSS | low polyreactivity
36 | QVQLQESAAGLVQAGGGLRLSCPASGTISGPHVMGWYRQSPGKEREFVAAINVGANTYYADNVKGRFTISRDNAKNTVYLQMNSLKPEDTGVYYCAAVYYGDIGHEYWGQGTQVTVSC | low polyreactivity
37 | QVQLQESAGALVQAGGSLRQSYAASGYIFPSLSMGRYRQAPGKEREFVAAIGRGSTNNYADSVKGRFTISRDNANNTAYQQMISLKPEDTAVYYCAAAASQLTRHLYWGQGTQVTVSS | low polyreactivity
38 | QVQLQESAGGLVQAGDSQRMSCAASGNSFRFTDMGWYRQAPGKERELVAAINAGSTTYYADSVKGRFTISLDNAKNTVYLQMNSLKPEDTAVYYCAVYYLGSGTFGYWGQGAQVTVSS | high polyreactivity
39 | QVQLQESAGGLVQAGGSLSLSCAASGSISRYYDMGWYRQAPGKEREFVAGISGGASTYYADSVKGRFTISRDNAKNTVYLQMNSLKPEDTAVYYCAADTGVYQYHSYWGQGTQVTVSS | low polyreactivity
40 | QVQLQESAGLVQAGGLRLSCAASGSVSYQEAMGWYRQAPGKERELVATMSFGANTNYADSVKVRFTISRDNAKNTVYLQMNSLKPEETAVYYCAAESLFDDYYGYWGQGTQVTVSS | low polyreactivity
41 | QVQLQESGADLEQAGGSLRLSFTASGTISDVRVMAWYRQAPGKERELVATISYVTITYYADSVKGRFTISRDSEKHRVSADDEPETGRYRGVLLRYYWGLGTQVTVSS | low polyreactivity
42 | QVQLQESGAGLLQAGGCLSCTASGTIFGQGDMGWYRQAPGKERELLATINDGASTYYADSVKGRFTISRDKAKNTVYLKKNSLKPDDTAVDYFAVFTDITNYFGYWGQATQVTVSS | low polyreactivity
43 | QVQLQESGCGLVQEGGSLRPSCAASGSISEGVPMGWSRQAPGEERELVATTVMGATTNYADSVKGRFTISRGNANNTVYLQMISLKPDETAVYYCAAPLRYDKGFSFWGQGTQVTVSS | low polyreactivity
